Assay results reported in patent US20170306033A1 (Amgen, published 2017).

T1: human PAC1 receptor (human, UniProt P41586 21-468)
T1 sequence: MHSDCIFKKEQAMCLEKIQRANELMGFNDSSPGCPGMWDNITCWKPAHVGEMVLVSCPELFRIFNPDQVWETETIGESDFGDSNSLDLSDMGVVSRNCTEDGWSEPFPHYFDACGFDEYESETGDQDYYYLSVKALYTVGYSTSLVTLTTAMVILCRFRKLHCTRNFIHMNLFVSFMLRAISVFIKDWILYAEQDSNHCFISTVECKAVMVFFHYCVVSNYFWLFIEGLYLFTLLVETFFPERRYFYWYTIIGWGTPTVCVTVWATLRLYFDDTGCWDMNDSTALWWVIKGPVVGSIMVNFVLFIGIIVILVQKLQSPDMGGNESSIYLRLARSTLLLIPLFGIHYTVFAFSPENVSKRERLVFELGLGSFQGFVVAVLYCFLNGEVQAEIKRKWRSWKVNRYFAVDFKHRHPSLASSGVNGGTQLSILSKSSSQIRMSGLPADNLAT


What was measured:
human CGRP receptor = human CGRP receptor (human, UniProt Q16602 23-461; O60894 27-148); assay: cell-based or functional assay
human PAC1 receptor = target: T1, human PAC1 receptor; assay: cell-based or functional assay

human CGRP receptor, sequence (Q16602 23-461 limits assumed, chain 1 of 2): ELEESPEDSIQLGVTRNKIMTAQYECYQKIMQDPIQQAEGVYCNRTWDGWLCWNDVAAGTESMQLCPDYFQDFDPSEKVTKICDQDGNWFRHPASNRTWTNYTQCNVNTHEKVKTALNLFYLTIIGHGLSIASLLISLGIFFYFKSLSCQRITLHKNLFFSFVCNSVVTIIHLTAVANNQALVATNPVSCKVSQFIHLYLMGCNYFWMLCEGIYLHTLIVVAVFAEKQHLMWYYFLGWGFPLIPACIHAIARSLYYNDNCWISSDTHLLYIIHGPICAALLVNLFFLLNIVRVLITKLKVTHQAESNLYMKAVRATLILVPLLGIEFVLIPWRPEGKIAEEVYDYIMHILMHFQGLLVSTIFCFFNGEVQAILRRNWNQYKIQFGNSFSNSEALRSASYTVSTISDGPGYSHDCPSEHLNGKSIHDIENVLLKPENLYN
human CGRP receptor, sequence (O60894 27-148 limits assumed, chain 2 of 2): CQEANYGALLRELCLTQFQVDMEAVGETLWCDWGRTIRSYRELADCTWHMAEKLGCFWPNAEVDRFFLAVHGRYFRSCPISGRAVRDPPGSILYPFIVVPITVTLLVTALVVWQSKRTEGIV

% inhibition of human CGRPR (human CGRP receptor) [%]	% inhibition of human PAC1 (human PAC1 receptor) [%]	Binder
81	78	iPS:327026 (bispecific antibody, human IgG1, kappa, N297G) light 1: EIVLTQSPATLSLSPGERATLSCRASQSVGRSLHWYQQKPGQAPRLLIKYASQSLSGIPARFSGSGSGTDFTLTISSLEPEDFAVYYCHQSSRLPFTFGEGTKVDIKRTVAAPSVFIFPPSDEQLKSGTASVVCLLNNFYPREAKVQWKVDNALQSGNSQESVTEQDSKDSTYSLESTLTLSKADYEKHKVYACEVTHQGLSSPVTKSFNRGEC heavy 1: not shown light 2: EIVLTQSPGTLSLSPGERATLSCRASQSVSSGYLTWYQQKPGQAPRLLIYGASSRATGIPDRFSGSGSGTDFTLTISRLEPEDFAVYYCQQYGNSLSRFGKGTKLEIKRTVAAPSVFIFPPSDEQLKSGTASVVCLLNNFYPREAKVQWKVDNALQSGNSQESVTEQDSKDSTYSLKSTLTLSKADYEKHKVYACEVTHQGLSSPVTKSFNRGEC heavy 2: not shown
70	68	iPS:327093 (bispecific antibody, human IgG1, kappa, N297G) light 1: DIQLTQSPSFLSASVGDRVTITCRASQSIGRSLHWYQQKPGKAPKLLIKYASQSLSGVPSRFSGSGSGTEFTLTISSLQPEDFATYYCHQSSRLPFTFGPGTKVDIKRTVAAPSVFIFPPSDEQLKSGTASVVCLLNNFYPREAKVQWKVDNALQSGNSQESVTEQDSKDSTYSLESTLTLSKADYEKHKVYACEVTHQGLSSPVTKSFNRGEC heavy 1: not shown light 2: EIVLTQSPGTLSLSPGERATLSCRASQSVSSGYLTWYQQKPGQAPRLLIYGASSRATGIPDRFSGSGSGTDFTLTISRLEPEDFAVYYCQQYGNSLSRFGQGTKLEIKRTVAAPSVFIFPPSDEQLKSGTASVVCLLNNFYPREAKVQWKVDNALQSGNSQESVTEQDSKDSTYSLKSTLTLSKADYEKHKVYACEVTHQGLSSPVTKSFNRGEC heavy 2: not shown
76	21	iPS:327025 (bispecific antibody, human IgG1, kappa, N297G) light 1: DIQLTQSPSFLSASVGDRVTITCRASQSIGRSLHWYQQKPGKAPKLLIKYASQSLSGVPSRFSGSGSGTEFTLTISSLQPEDFATYYCHQSSRLPFTFGEGTKVDIKRTVAAPSVFIFPPSDEQLKSGTASVVCLLNNFYPREAKVQWKVDNALQSGNSQESVTEQDSKDSTYSLESTLTLSKADYEKHKVYACEVTHQGLSSPVTKSFNRGEC heavy 1: not shown light 2: EIVLTQSPGTLSLSPGERATLSCRASQSVSSGYLTWYQQKPGQAPRLLIYGASSRATGIPDRFSGSGSGTDFTLTISRLEPEDFAVYYCQQYGNSLSRFGKGTKLEIKRTVAAPSVFIFPPSDEQLKSGTASVVCLLNNFYPREAKVQWKVDNALQSGNSQESVTEQDSKDSTYSLKSTLTLSKADYEKHKVYACEVTHQGLSSPVTKSFNRGEC heavy 2: not shown
65	79	iPS:327019 (bispecific antibody, human IgG1, kappa, N297G) light 1: EIVLTQSPATLSLSPGERATLSCRASQSVGRSLHWYQQKPGQAPRLLIKYASQSLSGIPARFSGSGSGTDFTLTISSLEPEDFAVYYCHQSSRLPFTFGPGTKVDIKRTVAAPSVFIFPPSDEQLKSGTASVVCLLNNFYPREAKVQWKVDNALQSGNSQESVTEQDSKDSTYSLESTLTLSKADYEKHKVYACEVTHQGLSSPVTKSFNRGEC heavy 1: not shown light 2: EIVLTQSPGTLSLSPGERATLSCRASQSVSSGYLTWYQQKPGQAPRLLIYGASSRATGIPDRFSGSGSGTDFTLTISRLEPEDFAVYYCQQYGNSLSRFGQGTKLEIKRTVAAPSVFIFPPSDEQLKSGTASVVCLLNNFYPREAKVQWKVDNALQSGNSQESVTEQDSKDSTYSLKSTLTLSKADYEKHKVYACEVTHQGLSSPVTKSFNRGEC heavy 2: not shown
73	52	iPS:327092 (bispecific antibody, human IgG1, kappa, N297G) light 1: not shown heavy 1: not shown light 2: EIVLTQSPGTLSLSPGERATLSCRASQSVSSGYLTWYQQKPGQAPRLLIYGASSRATGIPDRFSGSGSGTDFTLTISRLEPEDFAVYYCQQYGNSLSRFGQGTKLEIKRTVAAPSVFIFPPSDEQLKSGTASVVCLLNNFYPREAKVQWKVDNALQSGNSQESVTEQDSKDSTYSLKSTLTLSKADYEKHKVYACEVTHQGLSSPVTKSFNRGEC heavy 2: not shown
65	67	iPS:327091 (bispecific antibody, human IgG1, kappa, N297G) light 1: not shown heavy 1: not shown light 2: EIVLTQSPGTLSLSPGERATLSCRASQSVSSGYLTWYQQKPGQAPRLLIYGASSRATGIPDRFSGSGSGTDFTLTISRLEPEDFAVYYCQQYGNSLSRFGQGTKLEIKRTVAAPSVFIFPPSDEQLKSGTASVVCLLNNFYPREAKVQWKVDNALQSGNSQESVTEQDSKDSTYSLKSTLTLSKADYEKHKVYACEVTHQGLSSPVTKSFNRGEC heavy 2: not shown
75	7	iPS:327024 (bispecific antibody, human IgG1, kappa, N297G) light 1: not shown heavy 1: not shown light 2: EIVLTQSPGTLSLSPGERATLSCRASQSVSSGYLTWYQQKPGQAPRLLIYGASSRATGIPDRFSGSGSGTDFTLTISRLEPEDFAVYYCQQYGNSLSRFGKGTKLEIKRTVAAPSVFIFPPSDEQLKSGTASVVCLLNNFYPREAKVQWKVDNALQSGNSQESVTEQDSKDSTYSLKSTLTLSKADYEKHKVYACEVTHQGLSSPVTKSFNRGEC heavy 2: not shown
73	91	iPS:327094 (bispecific antibody, human IgG1, kappa, N297G) light 1: EIVLTQSPATLSLSPGERATLSCRASQSVGRSLHWYQQKPGQAPRLLIKYASQSLSGIPARFSGSGSGTDFTLTISSLEPEDFAVYYCHQSSRLPFTFGPGTKVDIKRTVAAPSVFIFPPSDEQLKSGTASVVCLLNNFYPREAKVQWKVDNALQSGNSQESVTEQDSKDSTYSLESTLTLSKADYEKHKVYACEVTHQGLSSPVTKSFNRGEC heavy 1: not shown light 2: EIVLTQSPGTLSLSPGERATLSCRASQSVSSGYLTWYQQKPGQAPRLLIYGASSRATGIPDRFSGSGSGTDFTLTISRLEPEDFAVYYCQQYGNSLSRFGQGTKLEIKRTVAAPSVFIFPPSDEQLKSGTASVVCLLNNFYPREAKVQWKVDNALQSGNSQESVTEQDSKDSTYSLKSTLTLSKADYEKHKVYACEVTHQGLSSPVTKSFNRGEC heavy 2: not shown
74	32	iPS:327023 (bispecific antibody, human IgG1, kappa, N297G) light 1: DIQMTQSPSSLSASVGDRITITCRASQSISRYLNWYQQKPGKAPKLLIYAASSLQSGIPSRFSGSGSGTDFTLTINSLQPEDFATYFCQQSYSPPFTFGEGTKVDIKRTVAAPSVFIFPPSDEQLKSGTASVVCLLNNFYPREAKVQWKVDNALQSGNSQESVTEQDSKDSTYSLESTLTLSKADYEKHKVYACEVTHQGLSSPVTKSFNRGEC heavy 1: not shown light 2: EIVLTQSPGTLSLSPGERATLSCRASQSVSSGYLTWYQQKPGQAPRLLIYGASSRATGIPDRFSGSGSGTDFTLTISRLEPEDFAVYYCQQYGNSLSRFGKGTKLEIKRTVAAPSVFIFPPSDEQLKSGTASVVCLLNNFYPREAKVQWKVDNALQSGNSQESVTEQDSKDSTYSLKSTLTLSKADYEKHKVYACEVTHQGLSSPVTKSFNRGEC heavy 2: not shown
96	86	iPS:326626 (bispecific antibody, human IgG2, kappa, lambda) light 1: not shown heavy 1: QVQLQQSGPGLVKPSQTLSLTCAISGDSVSSNSATWNWIRQSPSRGLEWLGRTYYRSKWSNHYAVSVKSRITINPDTSKSQFSLQLNSVTPEDTAVYYCARGTWKQLWFLDHWGQGTLVTVSSASTKGPSVFPLAPCSRSTSESTAALGCLVKDYFPEPVTVSWNSGALTSGVHTFPAVLQSSGLYSLKSVVTVPSSNFGTQTYTCNVDHKPSNTKVDKTVERKCCVECPPCPAPPVAGPSVFLFPPKPKDTLMISRTPEVTCVVVDVSHEDPEVQFNWYVDGVEVHNAKTKPREEQFNSTFRVVSVLTVVHQDWLNGKEYKCKVSNKGLPAPIEKTISKTKGQPREPQVYTLPPSREEMTKNQVSLTCLVDGFYPSDIAVEWESNGQPENNYDTTPPMLDSDGSFFLYSDLTVDKSRWQQGNVFSCSVMHEALHNHYTQKSLSLSPGK light 2: not shown heavy 2: not shown
71	6	iPS:327106 (bispecific antibody, human IgG1, kappa, lambda, N297G) light 1: not shown heavy 1: not shown light 2: not shown heavy 2: EVQLVESGGGLVKPGGSLRLSCAASGFTFGNAWMSWVRQAPGKELEWVGRIKSKTDGGTTDYAAPVKGRFTISRDDSKNTLYLQMNSLKTEDTAVYFCTTDRTGYSISWSSYYYYYGMDVWGQGTTVTVSSASTKGPSVFPLAPSSKSTSGGTAALGCLVKDYFPEPVTVSWNSGALTSGVHTFPAVLQSSGLYSLESVVTVPSSSLGTQTYICNVNHKPSNTKVDKKVEPKSCDKTHTCPPCPAPELLGGPSVFLFPPKPKDTLMISRTPEVTCVVVDVSHEDPEVKFNWYVDGVEVHNAKTKPCEEQYGSTYRCVSVLTVLHQDWLNGKEYKCKVSNKALPAPIEKTISKAKGQPREPQVYTLPPSRKEMTKNQVSLTCLVKGFYPSDIAVEWESNGQPENNYKTTPPVLKSDGSFFLYSKLTVDKSRWQQGNVFSCSVMHEALHNHYTQKSLSLSPGK
76	22	iPS:327107 (bispecific antibody, human IgG1, kappa, lambda, N297G) light 1: DIQLTQSPSFLSASVGDRVTITCRASQSIGRSLHWYQQKPGKAPKLLIKYASQSLSGVPSRFSGSGSGTEFTLTISSLQPEDFATYYCHQSSRLPFTFGEGTKVDIKRTVAAPSVFIFPPSDEQLKSGTASVVCLLNNFYPREAKVQWKVDNALQSGNSQESVTEQDSKDSTYSLESTLTLSKADYEKHKVYACEVTHQGLSSPVTKSFNRGEC heavy 1: not shown light 2: not shown heavy 2: EVQLVESGGGLVKPGGSLRLSCAASGFTFGNAWMSWVRQAPGKELEWVGRIKSKTDGGTTDYAAPVKGRFTISRDDSKNTLYLQMNSLKTEDTAVYFCTTDRTGYSISWSSYYYYYGMDVWGQGTTVTVSSASTKGPSVFPLAPSSKSTSGGTAALGCLVKDYFPEPVTVSWNSGALTSGVHTFPAVLQSSGLYSLESVVTVPSSSLGTQTYICNVNHKPSNTKVDKKVEPKSCDKTHTCPPCPAPELLGGPSVFLFPPKPKDTLMISRTPEVTCVVVDVSHEDPEVKFNWYVDGVEVHNAKTKPCEEQYGSTYRCVSVLTVLHQDWLNGKEYKCKVSNKALPAPIEKTISKAKGQPREPQVYTLPPSRKEMTKNQVSLTCLVKGFYPSDIAVEWESNGQPENNYKTTPPVLKSDGSFFLYSKLTVDKSRWQQGNVFSCSVMHEALHNHYTQKSLSLSPGK
